Measurements reported in patent US20250249092A1 (TORAY INDUSTRIES, published 2025).

T1: CAPRIN-1 on the cell membrane surface of human cancer cells (human, UniProt Q14444 2-709)
T1 construct: whole, on cells; also called CAPRIN-1 protein
T1 sequence (looked up): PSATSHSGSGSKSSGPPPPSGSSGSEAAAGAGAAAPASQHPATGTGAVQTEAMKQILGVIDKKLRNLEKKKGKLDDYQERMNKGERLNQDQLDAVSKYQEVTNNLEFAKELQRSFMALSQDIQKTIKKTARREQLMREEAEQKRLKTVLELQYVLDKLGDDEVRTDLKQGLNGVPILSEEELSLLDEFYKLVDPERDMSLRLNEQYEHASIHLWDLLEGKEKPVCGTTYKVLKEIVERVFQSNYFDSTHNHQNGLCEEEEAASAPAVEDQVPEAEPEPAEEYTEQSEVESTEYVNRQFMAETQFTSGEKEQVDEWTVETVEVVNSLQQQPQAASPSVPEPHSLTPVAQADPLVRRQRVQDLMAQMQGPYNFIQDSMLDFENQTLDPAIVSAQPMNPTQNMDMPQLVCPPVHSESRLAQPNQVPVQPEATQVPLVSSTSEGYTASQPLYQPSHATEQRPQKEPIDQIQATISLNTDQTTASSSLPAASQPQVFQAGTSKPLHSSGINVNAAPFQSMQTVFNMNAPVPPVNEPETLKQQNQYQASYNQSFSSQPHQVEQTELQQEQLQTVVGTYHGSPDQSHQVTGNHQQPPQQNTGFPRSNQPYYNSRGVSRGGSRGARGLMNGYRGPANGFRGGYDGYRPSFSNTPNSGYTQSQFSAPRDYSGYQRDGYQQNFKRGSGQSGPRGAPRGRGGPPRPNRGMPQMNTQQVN

T2: CAPRIN-1 on the cell membrane surface of mouse cancer cells (mouse, UniProt Q60865 2-707)
T2 construct: whole, on cells; also called CAPRIN-1 protein
T2 sequence (looked up): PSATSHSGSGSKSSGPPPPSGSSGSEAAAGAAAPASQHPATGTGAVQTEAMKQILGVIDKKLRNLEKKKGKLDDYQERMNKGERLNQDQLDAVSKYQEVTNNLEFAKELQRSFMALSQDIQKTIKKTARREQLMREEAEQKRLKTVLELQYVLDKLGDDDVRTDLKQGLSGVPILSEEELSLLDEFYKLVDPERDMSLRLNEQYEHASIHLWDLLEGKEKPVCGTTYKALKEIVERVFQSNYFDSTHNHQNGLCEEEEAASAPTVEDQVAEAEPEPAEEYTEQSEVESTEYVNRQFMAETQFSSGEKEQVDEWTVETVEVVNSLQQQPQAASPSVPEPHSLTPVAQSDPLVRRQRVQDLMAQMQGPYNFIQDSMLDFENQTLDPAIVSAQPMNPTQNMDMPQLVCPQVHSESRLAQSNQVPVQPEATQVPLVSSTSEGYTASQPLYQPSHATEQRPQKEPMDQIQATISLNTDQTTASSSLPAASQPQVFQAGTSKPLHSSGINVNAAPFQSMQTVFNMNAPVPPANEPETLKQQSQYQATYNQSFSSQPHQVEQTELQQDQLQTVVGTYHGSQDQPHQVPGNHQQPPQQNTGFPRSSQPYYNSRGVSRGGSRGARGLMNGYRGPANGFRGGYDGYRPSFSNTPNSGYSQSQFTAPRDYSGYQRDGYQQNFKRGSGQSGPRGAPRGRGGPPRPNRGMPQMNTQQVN

B1: Conjugate 8 (antibody, human IgG1, V domains shown)
VH: EQSLVESGGGLVQPGGSLRLSCAASGFSLSSHSLGWVRQAPGKGLEWIGDIRSGGSAYYANWAKGRFTISRDNSKNTLYLQMNSLRAEDTAVYYCTRTNGPSDLTNRLDLWGQGTLVTVSS
VL: QVLTQSPSSLSASVGDRVTINCQASQSLYNNENLAWFQQKPGKVPKRLIYGASTLASGVSSRFSGSGSGTEFTLTISSLQCEDFAIYYCLGEFSCGSADCFAFGGGTKVEIK
notes: humanized antibody #2 (human IgG1) + resiquimod, MC-Val-Cit-PAB linker
B2: Conjugate 22 (antibody, human IgG1, V domains shown)
VH: B1 VH
VL: B1 VL
notes: humanized antibody #2 (human IgG1) + resiquimod derivative, SATA and SMCC linkers
B3: Conjugate 12 (antibody, human IgG1, V domains shown)
VH: B1 VH
VL: B1 VL
notes: humanized antibody #6 (V regions of #2; human IgG1 S239D/I332E) + resiquimod, MC-Val-Cit-PAB linker
B4: Conjugate 26 (antibody, human IgG1, V domains shown)
VH: B1 VH
VL: B1 VL
notes: humanized antibody #6 (V regions of #2; human IgG1 S239D/I332E) + resiquimod derivative, SATA and SMCC linkers
B5: Conjugate 34 (antibody, V domains shown)
VH: B1 VH
VL: B1 VL
notes: mouse chimeric antibody #2 (mouse IgG constant regions) + resiquimod derivative, SATA and SMCC linkers
B6: Conjugate 30 (antibody, V domains shown)
VH: B1 VH
VL: B1 VL
notes: mouse chimeric antibody #2 (mouse IgG constant regions) + resiquimod, MC-Val-Cit-PAB linker
B7: Conjugate 31 (antibody, V domains shown)
VH: AVTLDESGGGLQTPGGGLSLVCKASGFTFSSFDMGWVRQAPGKGLEFVAQINDAGSRTWYATAVKGRATISRDNGQTTVRLQLNNLRAEDTGTYYCTRGSGYVGAGAIDAWGHGTEVIVS
VL: AALTQPSSVSANPGETVKITCSGGSGYYGWYQQQKSPGSAPVTVIYQNDKRPSDIPSRFSGSGSGSTNTLTITGVQAEDEAVYFCGRYDSTDSGIFGAGTTLTVL
notes: mouse chimeric antibody #3 (mouse IgG constant regions) + resiquimod, MC-Val-Cit-PAB linker
B8: Conjugate 35 (antibody, V domains shown)
VH: B7 VH
VL: B7 VL
notes: mouse chimeric antibody #3 (mouse IgG constant regions) + resiquimod derivative, SATA and SMCC linkers
B9: Conjugate 29 (antibody, V domains shown)
VH: AVTLDESGGGLQMSRGGLSLVCKASGFDFSSYQMNWIRQAPGKGLEFVAAINKFGNSTGHGAAVKGRVTISRDNGQSTVRLQLNNLRAEDTAIYFCTKHAYGYCGSGTWCAAGEIDAWGHGTEVIVSS
VL: QAASTQPSSVSANPGETVEITCSGGGSYSYGWFQQKSPGSAPVTVIYYNNKRPSDIPSRFSGSKSGSTGTLTITGVQADDEAVYYCGSGDSTDTAVFGAGTTLTVLG
notes: mouse chimeric antibody #1 (mouse IgG constant regions) + resiquimod, MC-Val-Cit-PAB linker
B10: Conjugate 33 (antibody, V domains shown)
VH: B9 VH
VL: B9 VL
notes: mouse chimeric antibody #1 (mouse IgG constant regions) + resiquimod derivative, SATA and SMCC linkers

Each binder was assayed against T1, CAPRIN-1 on the cell membrane surface … (assay: BT474 cells, as shown in Example 5).

Binder	binding result
B1	binds
B2	binds
B3	binds
B4	binds

Each binder was assayed against T2, CAPRIN-1 on the cell membrane surface … (assay: 4T1 cells).

Binder	binding result
B5	binds
B6	binds
B7	binds
B8	binds
B9	binds
B10	binds
